The values below are quoted from earlier work in article PMC4067134.

Data set [1] has as its target integrin αIIbβ3 (Homo sapiens) (UniProt P08514).
Data set [2] has as its target integrin β3 (Homo sapiens) (UniProt P05106).
Sequence of UniProt P05106 (P05106 27-718): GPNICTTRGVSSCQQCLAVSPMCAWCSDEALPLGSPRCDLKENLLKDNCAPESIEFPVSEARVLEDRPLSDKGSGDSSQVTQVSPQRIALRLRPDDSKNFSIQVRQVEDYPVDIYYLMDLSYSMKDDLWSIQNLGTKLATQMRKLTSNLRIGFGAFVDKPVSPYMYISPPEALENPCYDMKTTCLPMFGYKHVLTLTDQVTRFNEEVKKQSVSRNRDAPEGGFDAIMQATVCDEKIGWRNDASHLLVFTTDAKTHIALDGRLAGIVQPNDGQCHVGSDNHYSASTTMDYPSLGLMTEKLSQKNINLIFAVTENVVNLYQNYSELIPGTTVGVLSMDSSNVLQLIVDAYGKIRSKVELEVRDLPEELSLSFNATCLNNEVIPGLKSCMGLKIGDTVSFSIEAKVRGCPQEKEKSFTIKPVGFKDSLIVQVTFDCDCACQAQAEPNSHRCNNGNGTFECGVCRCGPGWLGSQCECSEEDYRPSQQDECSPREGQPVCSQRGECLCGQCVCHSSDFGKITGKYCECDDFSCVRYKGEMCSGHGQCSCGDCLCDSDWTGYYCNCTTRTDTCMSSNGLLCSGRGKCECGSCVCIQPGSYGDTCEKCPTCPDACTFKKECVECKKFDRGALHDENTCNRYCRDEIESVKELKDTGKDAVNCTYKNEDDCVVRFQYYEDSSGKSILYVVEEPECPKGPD

Regarding ERp5 (from UniProt Q15084), the dissociation constant (Kd) (commonly a measure of binding affinity in units of concentration) in data set [1] is 7 µM; in data set [2] it was 6.9 µM.
